Numbering of substitutions follows the chain as printed.
B1: ZDY20 human monoclonal antibody, IgG1 (antibody, V domains shown)
VH: EVQLVETGGGLIQPGGSLRLSCAASGITVSSNYMSWVRQAPGKGLEWVSVIYSGGSTYYADSVKGRFTISRDNSKNTLYLQMNSLRAEDTAVYYCAREGLGDGYNAIAGLGFDLWGRGTLVTVSS
VL: DIVMTQSPSSLSASVGDSVTITCQASQDINNYLNWYQQKPGRAPELLINDASNLEAGVPSRFSGSGSGTDFTLTISSLQTEDFATYYCQQYGSLPYTFGQGTKLDIR
B2: ZDY28 human monoclonal antibody, IgG1 (antibody, V domains shown)
VH: EVQLVQSGGGVVQPGRSLRLSCAASGFTFSSYGMHWVRQAPGKGLEWVAVISYDGSNKYYADSVKGRFTISRDNSKNTLYLQMNSLRAEDTAVYYCASRSTVVPAAIFAFDIWGQGTMVTVSS
VL: not shown
B3: ZDY49 human monoclonal antibody, IgG1 (antibody, V domains shown)
VH: B2 VH with Q6E
VL: not shown
B4: ZDY95 human monoclonal antibody, IgG1 (antibody, V domains shown)
VH: B2 VH
VL: not shown

Assays:
[1] = target: T1, SARS-CoV-2 spike trimer protein (SARS-CoV-2, Wuhan-Hu-1 reference, UniProt P0DTC2); assay: cell-based or functional assay
[2] = target: T1, SARS-CoV-2 spike trimer protein; assay: SPR

Binder	neutralisation of live SARS-CoV-2, IC50; blocks S binding to ACE2 [1] [µg/mL]	pseudovirus neutralisation in 293T-ACE2 cells, IC90; blocks S binding to ACE2 [1] [µg/mL]	Kd [2] [nM]
B1	0.35	1.24	8.8
B2	–	7.47	10.2
B3	–	17.1	24.4
B4	–	13.3	15

— publication PMC7904446 (Cell Host & Microbe, 2021)
